Measurements reported in the supplement of paper PMC7125110.
± gives the standard error. Variants at the floor of the assay were thinned out.

B1: glmS ribozyme (parent)
chain: AUAAAAGCGCCAGAACUACAGAAAUGUAGUUGACGAGGAGGAGGUUUAUCGAAUUUUCGGCGGAUGCCUCCAAA

Experiments:
Conditions in all cases: with glucosamine-6-phosphate
[1] = variants of: B1; experiment: self-cleavage kobs at 640 uM GlcN6P; higher = faster cleavage; RNA array
In short: (§1)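 Barcoded ribozyme variants were transcribed in situ on sequenced MiSeq chips by E. coli RNA polymerase. At 37 °C, a hybridised Cy3 probe tracked them while glucosamine-6-phosphate (40 μM to 10 mM) in HEPES/KCl/Mg(OAc)2 buffer flowed in and tiles were imaged over ~14 h. Per-tile medians of signals normalised to baseline and to non-cleaving reference variants were fit to one- or two-exponential decays, giving kobs. kcat and KM came from weighted Michaelis–Menten fits across concentrations.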

[2] = variants of: B1; experiment: self-cleavage kobs at 2500 uM GlcN6P; higher = faster cleavage; RNA array
In short: as §1

[3] = variants of: B1; experiment: self-cleavage kobs at 10000 uM GlcN6P; higher = faster cleavage; RNA array
In short: as §1

A42C U49C C58U
self-cleavage kobs at 640 uM GlcN6P [1]: < 1e-05 s⁻¹ | self-cleavage kobs at 2500 uM GlcN6P [2]: < 1e-05 s⁻¹

C34U G43U A53G U55A A64U
self-cleavage kobs at 640 uM GlcN6P [1]: < 1e-05 s⁻¹ | self-cleavage kobs at 2500 uM GlcN6P [2]: < 1e-05 s⁻¹

G40C G43U U55C
self-cleavage kobs at 640 uM GlcN6P [1]: < 1e-05 s⁻¹ | self-cleavage kobs at 2500 uM GlcN6P [2]: < 1e-05 s⁻¹

A15G G51C A52G G62A
self-cleavage kobs at 640 uM GlcN6P [1]: < 1e-05 s⁻¹ | self-cleavage kobs at 2500 uM GlcN6P [2]: < 1e-05 s⁻¹

G35A U46C U65A
self-cleavage kobs at 640 uM GlcN6P [1]: < 1e-05 s⁻¹ | self-cleavage kobs at 10000 uM GlcN6P [3]: < 1e-05 s⁻¹

G7U G40A G59U
self-cleavage kobs at 640 uM GlcN6P [1]: < 1e-05 s⁻¹

C10U A12C G60U
self-cleavage kobs at 640 uM GlcN6P [1]: < 1e-05 s⁻¹

A42G G43A U46G G66U
self-cleavage kobs at 640 uM GlcN6P [1]: < 1e-05 s⁻¹ | self-cleavage kobs at 2500 uM GlcN6P [2]: < 1e-05 s⁻¹

G7A G37A G60U A64U
self-cleavage kobs at 640 uM GlcN6P [1]: < 1e-05 s⁻¹

G44C A52G U54G
self-cleavage kobs at 640 uM GlcN6P [1]: < 1e-05 s⁻¹ | self-cleavage kobs at 2500 uM GlcN6P [2]: < 1e-05 s⁻¹

A15G A48U C70G
self-cleavage kobs at 640 uM GlcN6P [1]: 5.16e-05 ± 1.9e-05 s⁻¹ | self-cleavage kobs at 2500 uM GlcN6P [2]: 6.9e-05 ± 1.6e-05 s⁻¹

A12C A14C A48U G60A
self-cleavage kobs at 640 uM GlcN6P [1]: < 1e-05 s⁻¹

U57G C58G C67G
self-cleavage kobs at 640 uM GlcN6P [1]: 0.000157 ± 5.5e-05 s⁻¹ | self-cleavage kobs at 2500 uM GlcN6P [2]: 6.13e-05 ± 2.6e-05 s⁻¹ | self-cleavage kobs at 10000 uM GlcN6P [3]: 3.89e-05 ± 1.9e-05 s⁻¹

G38A G43U G51C
self-cleavage kobs at 640 uM GlcN6P [1]: < 1e-05 s⁻¹ | self-cleavage kobs at 2500 uM GlcN6P [2]: < 1e-05 s⁻¹

A6U A15U G40U G43C
self-cleavage kobs at 640 uM GlcN6P [1]: < 1e-05 s⁻¹

G9U G32C A42G U45G
self-cleavage kobs at 640 uM GlcN6P [1]: < 1e-05 s⁻¹ | self-cleavage kobs at 2500 uM GlcN6P [2]: < 1e-05 s⁻¹

A12U A15C C71A
self-cleavage kobs at 640 uM GlcN6P [1]: 0.000661 ± 0.00015 s⁻¹ | self-cleavage kobs at 2500 uM GlcN6P [2]: 0.0015 ± 0.00053 s⁻¹

G9U A14C A53U G62A C67G
self-cleavage kobs at 640 uM GlcN6P [1]: < 1e-05 s⁻¹ | self-cleavage kobs at 2500 uM GlcN6P [2]: < 1e-05 s⁻¹

C34G C61G G62C
self-cleavage kobs at 640 uM GlcN6P [1]: < 1e-05 s⁻¹

U46A U55C
self-cleavage kobs at 640 uM GlcN6P [1]: 0.00095 ± 0.00025 s⁻¹ | self-cleavage kobs at 2500 uM GlcN6P [2]: 0.00269 ± 0.00043 s⁻¹ | self-cleavage kobs at 10000 uM GlcN6P [3]: 0.0029 ± 0.00062 s⁻¹

A6G C16G G32A
self-cleavage kobs at 640 uM GlcN6P [1]: < 1e-05 s⁻¹ | self-cleavage kobs at 2500 uM GlcN6P [2]: < 1e-05 s⁻¹

A14C U46G G66A
self-cleavage kobs at 640 uM GlcN6P [1]: 0.000298 ± 5.1e-05 s⁻¹ | self-cleavage kobs at 2500 uM GlcN6P [2]: 0.000166 ± 3.6e-05 s⁻¹

A6C A36C U56G
self-cleavage kobs at 640 uM GlcN6P [1]: < 1e-05 s⁻¹ | self-cleavage kobs at 2500 uM GlcN6P [2]: < 1e-05 s⁻¹

A14U G29C G51U
self-cleavage kobs at 640 uM GlcN6P [1]: < 1e-05 s⁻¹

A15G U31C A33C A52U U54C
self-cleavage kobs at 640 uM GlcN6P [1]: < 1e-05 s⁻¹ | self-cleavage kobs at 2500 uM GlcN6P [2]: < 1e-05 s⁻¹

G13A A14G G29C C50G
self-cleavage kobs at 640 uM GlcN6P [1]: 0.000185 ± 6.9e-05 s⁻¹

U49C U65C U69A
self-cleavage kobs at 640 uM GlcN6P [1]: < 1e-05 s⁻¹ | self-cleavage kobs at 2500 uM GlcN6P [2]: < 1e-05 s⁻¹

G9A C10A G13C G29C
self-cleavage kobs at 640 uM GlcN6P [1]: < 1e-05 s⁻¹ | self-cleavage kobs at 2500 uM GlcN6P [2]: < 1e-05 s⁻¹

C10G G13C A39G
self-cleavage kobs at 640 uM GlcN6P [1]: < 1e-05 s⁻¹ | self-cleavage kobs at 2500 uM GlcN6P [2]: < 1e-05 s⁻¹
